In PMC2876975:

What was measured:
[1] = target: c-Myc–HMPV P, in vitro translated, unlabelled (human metapneumovirus strain TN/96-12); test: co-IP
[2] = target: c-Myc–HMPV N, in vitro translated, unlabelled (human metapneumovirus strain TN/96-12); test: co-IP

Substance	percent co-immunoprecipitated [1] [%]	percent co-immunoprecipitated [2] [%]
Radiolabelled native HMPV N, in vitro translated (natural protein)	< 1	
Radiolabelled native HMPV P, in vitro translated (natural protein)		< 1
